The text below walks through data of PMC11945200, “Aptamer Paper-Based Fluorescent Sensor for Determination of SARS-CoV-2 Spike Protein”.

For the data set, the target named is SARS-CoV-2 spike S1 protein (SARS-CoV-2, UniProt P0DTC2 13-685). Nature of the data set: fluorescence recovery (target-induced release of the probe from Nb2C MXene quencher). To be noted: protein: recombinant.

B1: SARS-CoV-2 S-RBD aptamer (G-CDs@Apt) (ssDNA)
DNA: CAGCACCGACCTTGTGCTTTGGGAGTGCTGGTCCAAGGGCGTTAATGGACA
modifications: 5'-NH2-C6
With B1, the binding result is on record as “binds”.
